The values below come from patent US20210032664, “ENGINEERED MEGANUCLEASES WITH RECOGNITION SEQUENCES FOUND IN THE HUMAN BETA-2 MICROGLOBULIN GENE” (Precision Biosciences, Inc., published 2021).

Changes are numbered by the printed parent chain. Names and notes keep the numbering of the source.

Holding throughout (assay): cell_activity; human T cells, 1 ug mRNA, day 3
What all share (details): tags: N-terminal SV40 NLS

Data set [1] concerns the target T1, B2M 13-14x.93 QE (Artificial Sequence).
T1 chain: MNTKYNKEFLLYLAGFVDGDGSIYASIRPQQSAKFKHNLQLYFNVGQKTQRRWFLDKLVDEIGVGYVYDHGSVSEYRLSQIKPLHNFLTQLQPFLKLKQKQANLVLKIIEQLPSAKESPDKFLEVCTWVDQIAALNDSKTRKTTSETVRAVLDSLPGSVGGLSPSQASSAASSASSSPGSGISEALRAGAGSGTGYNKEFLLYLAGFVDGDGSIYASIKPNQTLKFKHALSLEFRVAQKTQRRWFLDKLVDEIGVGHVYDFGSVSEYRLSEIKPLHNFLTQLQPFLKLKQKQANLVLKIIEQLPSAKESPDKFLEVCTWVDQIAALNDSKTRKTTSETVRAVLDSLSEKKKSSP
As for the experimental part: (§1) To test these variants of B2M 13-14x.93, donor human T cells were stimulated with anti-CD3 and anti-CD28 antibodies for 3 days, then electroporated with mRNA encoding a given B2M 13-14 meganuclease (1 μg) using the Amaxa 4D-Nucleofector (Lonza) according to the manufacturer's instructions. At 3 days post-electroporation, cells were stained with an antibody recognizing β-2 microglobulin (BD Biosciences) and analyzed by flow cytometry.

Data set [2] addresses T2, B2M 13-14x.93 EEK66 (Artificial Sequence).
T2 chain: T1 chain with Y66K, Q80E
The method, then:
as §1

Data set [3] deals with T3, B2M 13-14x.93 EEY66 (Artificial Sequence).
T3 chain: T1 chain with Q80E
The method, then: as §1

Data set [4] concerns the target T4, B2M 13-14x.93 EQK66 (Artificial Sequence).
T4 chain: T1 chain with Y66K, Q80E, E271Q
As for the experimental part: as §1

The target in data set [5] is T5, B2M 13-14x.93 EQ (Artificial Sequence).
T5 chain: T1 chain with Q80E, E271Q
The method, then: as §1

Data set [6] concerns the target T6, B2M 13-14x.93 EE (Artificial Sequence).
T6 chain: T1 chain with Q80E
The method, then:
as §1

Data set [7] has as its target T7, B2M 13-14x.93 EQR66 (Artificial Sequence).
T7 chain: T1 chain with Y66R, Q80E, E271Q
As for the experimental part: as §1

B1: B2M 13-14 recognition sequence (dsDNA)
DNA 1: CTATCTCTTGTACTACACTGAA
DNA 2: TTCAGTGTAGTACAAGAGATAG
As for B1, the activity came to 37 % B2M-negative in data set [1]; 3.84 % B2M-negative in data set [2]; 1.58 % B2M-negative in data set [3]; 6.81 % B2M-negative in data set [4]; 5.13 % B2M-negative in data set [5]; 18.3 % B2M-negative in data set [6]. In data set [7], this molecule returned an activity of 5.12 % B2M-negative.
